The text below walks through data of patent US20040229310A1 (Genentech, published 2004).

Usually Kd stands for the equilibrium constant for the complex coming apart.

In assay [1] the target is T1, VEGF (UniProt P15692-4 27-191, limits assumed).
T1 construct: Coupled covalently to the biosensor chip; also called VEGF antigen; VEGF (109)
The assay is described as follows: BIAcore SPR, VEGF coupled to the chip, full-length antibody injected; Kd = koff/kon; original FR1 subgroup III sequence (pxVG11VNERK). Here is the method:
(§1) The VEGF-binding affinities of full length antibodies produced in bacterial cells were calculated from association and disassociation rate constants measured using a BIAcore™-2000 surface plasmon resonance system (BIAcore, Inc., Piscataway, N.J.) as described in Chen et al, (1999) J. Mol. Bio. 293:865-881). A biosensor chip was activated for covalent coupling of VEGF using N-ethyl-N′-(3-dimethylaminopropyl)-carbo-dimide hydrochloride (EDC) and N-hydroxysuccinimid (NHS) according to the supplier's (BIAcore, Inc., Piscataway, N.J.) instructions. VEGF (109) or VEGF (165) was buffer-exchanged into 20 mM sodium acetate, pH 4.8 and diluted to approximately […] to achieve approximately 700-1400 response units (RU) of coupled protein. A solution of 1 M ethanolamine was injected as a blocking agent.
(§2) For kinetics measurements, twofold serial dilutions of full length antibodies were injected in PBS/Tween buffer (0.05% Tween-20 in phosphate-buffered saline) at 25° C. or 37° C. at a flow rate of 10 μl/minute. Equilibrium dissociation constants, Kd values from SPR measurements were calculated as koff/kₒₙ.
(§3) To determine if the FR1 subgroup substitutions had any effect on the binding affinity for VEGF antigen, an affinity assay was performed using the expressed antibodies obtained from bacterial cells.
(In SPR one partner is held on a chip, and binding of the other changes the refractive index at the surface.)

For assay [2], the target named is T1, VEGF. The assay is described as follows: BIAcore SPR, VEGF coupled to the chip, full-length antibody injected; Kd = koff/kon; subgroup I sequence substitution (pVKFR1-2). Here is the method: as §1, §2, §3

T1 sequence (P15692 other isoform, or with tags, fused parts or gaps limits assumed): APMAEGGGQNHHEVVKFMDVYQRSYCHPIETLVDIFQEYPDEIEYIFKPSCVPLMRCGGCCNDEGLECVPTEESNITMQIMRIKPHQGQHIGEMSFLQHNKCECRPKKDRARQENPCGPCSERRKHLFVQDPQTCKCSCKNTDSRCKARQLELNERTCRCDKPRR

B1: anti-VEGF antibody VNERK with heavy chain FR1 subgroup III sequence (plasmid pxVG11VNERK) (antibody, V domains shown)
VH: EVQLVESGGGLVQPGGSLRLSCAASGYTFTNYGINWVRQAPGKGLEWVGWINTYTGEPTYAADFKRRFTFSLDTSKSTAYLQMNSLRAEDTAVYYCAKYPHYYVNERKSHWYFDVWGQGTLVTVSS
VL: DIQLTQSPSSLSASVGDRVTITCSASQDISNYLNWYQQKPGKAPKVLIYFTSSLHSGVPSRFSGSGSGTDFTLTISSLQPEDFATYYCQQYSTVPWTFGQGTKVEIKR
notes: Full-length humanized antibody made in E. coli (aglycosylated); also called anti-VEGF (VNERK); xVEGF (VNERK)
Molecule B1 gave a Kd with VEGF [1] of 0.12 nM.

B2: anti-VEGF antibody VNERK with heavy chain FR1 subgroup I consensus sequence (plasmid pVKFR1-2) (antibody, V domains shown)
VH: QVQLVQSGAEVKKPGASVKVSCKASGYTFTNYGINWVRQAPGKGLEWVGWINTYTGEPTYAADFKRRFTFSLDTSKSTAYLQMNSLRAEDTAVYYCAKYPHYYVNERKSHWYFDVWGQGTLVTVSS
VL: B1 VL
notes: Full-length antibody made in E. coli; differs from VNERK (pxVG11VNERK) by 12 substitutions in heavy chain FR1 (subgroup III to subgroup I); also called pVKFR1-2 (FR1 = SGI); VNERK HCFR1=SGI
In the assay with VEGF [2], B2 had a Kd of 0.19 nM.
